Numbering of substitutions follows the chain as printed.
T1: Cynomolgus monkey ROBO2 overexpressed on HEK293 cells (cynomolgus monkey, UniProt Q9HCK4 22-1378 (human entry))
T1 chain: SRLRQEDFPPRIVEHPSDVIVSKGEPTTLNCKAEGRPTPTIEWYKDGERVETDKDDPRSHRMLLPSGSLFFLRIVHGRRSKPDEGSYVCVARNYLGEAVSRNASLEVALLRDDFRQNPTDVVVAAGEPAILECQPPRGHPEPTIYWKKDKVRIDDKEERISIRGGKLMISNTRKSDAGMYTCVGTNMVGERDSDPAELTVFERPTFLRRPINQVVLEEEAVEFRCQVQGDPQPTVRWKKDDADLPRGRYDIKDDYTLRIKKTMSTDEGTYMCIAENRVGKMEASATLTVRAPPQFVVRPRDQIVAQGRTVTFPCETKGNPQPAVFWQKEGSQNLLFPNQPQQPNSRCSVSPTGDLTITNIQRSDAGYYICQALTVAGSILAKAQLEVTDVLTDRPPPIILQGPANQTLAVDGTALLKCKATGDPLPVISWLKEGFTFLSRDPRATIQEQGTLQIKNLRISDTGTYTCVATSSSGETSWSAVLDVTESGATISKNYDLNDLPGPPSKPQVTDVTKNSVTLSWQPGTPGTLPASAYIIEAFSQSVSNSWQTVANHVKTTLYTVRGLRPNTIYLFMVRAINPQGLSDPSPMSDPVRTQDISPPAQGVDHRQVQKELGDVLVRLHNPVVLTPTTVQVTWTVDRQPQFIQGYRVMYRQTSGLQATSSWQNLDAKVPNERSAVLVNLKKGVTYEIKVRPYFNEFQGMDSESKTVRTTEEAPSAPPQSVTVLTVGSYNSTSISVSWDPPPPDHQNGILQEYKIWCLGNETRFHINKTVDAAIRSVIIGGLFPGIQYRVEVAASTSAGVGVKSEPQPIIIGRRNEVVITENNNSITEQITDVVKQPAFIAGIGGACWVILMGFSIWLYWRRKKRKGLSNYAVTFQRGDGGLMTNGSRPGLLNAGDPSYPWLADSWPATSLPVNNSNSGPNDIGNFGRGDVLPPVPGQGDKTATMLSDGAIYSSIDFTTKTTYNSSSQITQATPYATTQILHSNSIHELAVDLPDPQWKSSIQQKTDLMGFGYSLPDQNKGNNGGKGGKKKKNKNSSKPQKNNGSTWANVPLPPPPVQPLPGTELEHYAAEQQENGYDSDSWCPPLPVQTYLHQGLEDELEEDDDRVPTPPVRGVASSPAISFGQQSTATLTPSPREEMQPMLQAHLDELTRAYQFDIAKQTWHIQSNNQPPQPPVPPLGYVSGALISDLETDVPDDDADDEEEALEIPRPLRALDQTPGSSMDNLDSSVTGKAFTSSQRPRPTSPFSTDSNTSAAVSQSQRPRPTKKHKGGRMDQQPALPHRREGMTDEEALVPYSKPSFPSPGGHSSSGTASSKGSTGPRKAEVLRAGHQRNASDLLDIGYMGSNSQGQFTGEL

B1: Abcs35 (antibody, human IgG1, kappa)
heavy: EVQLVQSGAEVKKPGASVKVSCKASGYTFTGYYMHWVRQAPGQGLEWMGWINPKNGDTEFPQKFQGRVTMTRDTSITTAYMDLSRLRSDDTAVYYCARESGDDAFDIWGQGTMVTVSSASTKGPSVFPLAPSSKSTSGGTAALGCLVKDYFPEPVTVSWNSGALTSGVHTFPAVLQSSGLYSLSSVVTVPSSSLGTQTYICNVNHKPSNTKVDKKVEPKSCDKTHTCPPCPAPEAAGAPSVFLFPPKPKDTLMISRTPEVTCVVVDVSHEDPEVKFNWYVDGVEVHNAKTKPREEQYNSTYRVVSVLTVLHQDWLNGKEYKCKVSNKALPAPIEKTISKAKGQPREPQVYTLPPSREEMTKNQVSLTCLVKGFYPSDIAVEWESNGQPENNYKTTPPVLDSDGSFFLYSKLTVDKSRWQQGNVFSCSVMHEALHNHYTQKSLSLSPGK
light: DIVMTQSPSSLSASVGDRVTITCRASQSISSYLNWYQQKPGKAPKLLIYAASSLQSGVPSRFSGSGSGTDFTLTISSLQPEDFATYYCQQSVGLFFGGGTKVEIKRTVAAPSVFIFPPSDEQLKSGTASVVCLLNNFYPREAKVQWKVDNALQSGNSQESVTEQDSKDSTYSLSSTLTLSKADYEKHKVYACEVTHQGLSSPVTKSFNRGEC
notes: fully human IgG1; VH of Ab96 with VL of Ab123
B2: Abcs35-J (antibody, human IgG1, kappa)
heavy: B1 heavy with D82E
light: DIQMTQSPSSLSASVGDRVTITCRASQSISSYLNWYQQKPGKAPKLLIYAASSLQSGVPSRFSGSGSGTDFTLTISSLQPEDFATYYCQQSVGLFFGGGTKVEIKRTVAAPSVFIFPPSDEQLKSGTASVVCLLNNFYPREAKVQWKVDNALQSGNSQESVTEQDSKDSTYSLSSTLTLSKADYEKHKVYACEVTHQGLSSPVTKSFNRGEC
notes: germlined variant of Abcs35; also called ABCS-J

Target: T1, Cynomolgus monkey ROBO2 overexpressed …
Assay: flow cytometry, HEK293 cells
Method: Using flow cytometry, improvement in the binding EC₅₀ to human ROBO2 relative to the parental 93H2 was evaluated. Starting at 6.7 nM, 11-point, 3-fold dilution series were made for each antibody and used to stain HEK293 overexpressing human ROBO2 as described above for the ROBO2 fold selectivity (Example 2). […] In addition to measuring improved binding to human ROBO2, it was important to ensure that high affinity binding to both cynomolgus monkey ROBO2 and rat ROBO2 was maintained. Using HEK293 cells overexpressing either cynomolgus monkey ROBO2 or rat ROBO2, the relative dose-dependent binding of 93H2, Abcs25 and Abcs35 was evaluated as described above. High affinity binding to both cynomolgus monkey and rat ROBO2 was maintained in Abcs25 and Abcs35 (Table 4). […] Briefly, Abcs35 was immobilized to 300 resonance units (RU) on a CM5 chip. Association of ROBO2 Ig1-Ig2-His (ROBO2) was measured over 5 minutes and dissociation was followed for a period of 10 minutes.
The binding profile of Abcs35-J compared to Abcs35 was determined for human ROBO2, orthologs from cynomolgus monkey and rat, human ROBO1 and specificity for the RSK epitope from ROBO2 but not KSR from ROBO1. Binding was assessed by flow cytometry as described in Examples 2 (homolog specificity), Example 3 (ortholog reactivity) and Example 5 (RSK vs KSR epitope specificity). […] Binding of the antibodies was detected using a secondary fluorochrome conjugated anti-human IgG F(ab′)₂ antibody and samples analyzed on a Fortessa cytometer (BD Biosciences).

Row | Binder | EC50
1 | B1 | 0.111 nM
2 | B2 | 0.099 nM

Reference: patent US20200157212A1 (Pfizer, published 2020)
